# Target: α5 integrin (endogenous) (mouse) (UniProt P11688)
# Experiment: cell-based or functional assay
# α5 integrin (endogenous) (mouse), sequence (P11688 45-1053): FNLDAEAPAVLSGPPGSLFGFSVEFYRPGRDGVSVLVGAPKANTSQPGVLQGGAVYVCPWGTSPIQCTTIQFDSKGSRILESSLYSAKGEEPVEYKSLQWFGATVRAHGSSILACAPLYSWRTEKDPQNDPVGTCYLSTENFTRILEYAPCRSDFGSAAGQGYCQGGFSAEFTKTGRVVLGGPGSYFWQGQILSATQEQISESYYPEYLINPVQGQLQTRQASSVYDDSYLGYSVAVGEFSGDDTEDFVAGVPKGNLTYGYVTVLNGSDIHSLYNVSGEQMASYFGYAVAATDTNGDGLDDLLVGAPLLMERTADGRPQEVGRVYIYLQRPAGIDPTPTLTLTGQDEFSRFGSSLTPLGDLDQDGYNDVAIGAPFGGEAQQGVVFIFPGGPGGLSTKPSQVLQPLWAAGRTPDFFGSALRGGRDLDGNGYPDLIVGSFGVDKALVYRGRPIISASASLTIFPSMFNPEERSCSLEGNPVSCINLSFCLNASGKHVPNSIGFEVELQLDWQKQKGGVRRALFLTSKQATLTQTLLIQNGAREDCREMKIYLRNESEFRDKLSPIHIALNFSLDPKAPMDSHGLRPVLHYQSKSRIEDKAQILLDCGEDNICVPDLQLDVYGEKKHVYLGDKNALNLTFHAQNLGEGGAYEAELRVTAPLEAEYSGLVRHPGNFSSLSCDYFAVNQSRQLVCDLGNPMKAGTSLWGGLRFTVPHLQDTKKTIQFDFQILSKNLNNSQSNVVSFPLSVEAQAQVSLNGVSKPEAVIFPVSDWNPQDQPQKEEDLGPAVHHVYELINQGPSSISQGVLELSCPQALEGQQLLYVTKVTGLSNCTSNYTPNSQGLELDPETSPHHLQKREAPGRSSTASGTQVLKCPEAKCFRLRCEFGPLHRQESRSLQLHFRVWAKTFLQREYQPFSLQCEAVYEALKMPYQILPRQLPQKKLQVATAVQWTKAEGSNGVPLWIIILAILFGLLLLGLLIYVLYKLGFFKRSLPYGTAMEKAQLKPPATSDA
substance,measurement,value
GFP-Mena (from UniProt Q03173 1-802),"t1/2 of fluorescence recovery (FRAP) in nascent, peripheral adhesions, cells plated for 30 minutes on FN",18.9 s

# — patent US20150079113A1
